Here are results for seven molecules from publication PMC4757822, “Structural and biochemical characterization of an RNA/DNA binding motif in the N-terminal domain of RecQ4 helicases”.

What is called Kd is the free concentration of one partner at which half of the binding sites on the other are occupied at equilibrium, for simple one-to-one binding.

In series [1] the test system is xUpZnK (upstream Sld2-like region + Zn knuckle) (Xenopus laevis). Description: EMSA. The conditions noted are these: 20 mM Tris-HCl pH 7.5, 2 mM MgCl2, 50 mM NaCl, 5% glycerol, 1 mM DTT, 5 mM ZnCl2, 0.1 mg/ml BSA, 10 nM probe, 30 min room temperature; 6% native gel in TBE at …. (In EMSA bound probe runs differently from free probe, usually more slowly.)
Series [2] deals with T1, hZnK (RecQ4 Zn knuckle) (human, UniProt O94761 394-427).
T1 chain: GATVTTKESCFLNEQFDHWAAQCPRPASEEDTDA
Description: EMSA. The conditions noted are these: 20 mM Tris-HCl pH 7.5, 2 mM MgCl2, 50 mM NaCl, 5% glycerol, 1 mM DTT, 5 mM ZnCl2, 0.1 mg/ml BSA, 10 nM probe, 30 min room temperature; 6% native gel in TBE at ….

The target of series [3] is T2, hUpZnK (upstream Sld2-like region + Zn knuckle) (human) (UniProt O94761).
T2 sequence: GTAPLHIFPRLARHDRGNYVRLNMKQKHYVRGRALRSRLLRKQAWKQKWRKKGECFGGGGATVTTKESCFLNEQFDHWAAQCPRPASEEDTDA
The series is described as follows: EMSA. The conditions noted are these: 20 mM Tris-HCl pH 7.5, 2 mM MgCl2, 50 mM NaCl, 5% glycerol, 1 mM DTT, 5 mM ZnCl2, 0.1 mg/ml BSA, 10 nM probe, 30 min room temperature; 6% native gel in TBE at ….

Series [4] has as its target T1, hZnK (RecQ4 Zn knuckle). The series is described as follows: EMSA; 20 mM Tris-HCl pH 7.5, 2 mM MgCl2, 50 mM NaCl, 5% glycerol, 1 mM DTT, 5 mM ZnCl2, 0.1 mg/ml BSA, 10 nM probe, 30 min room temperature; 6% native gel in TBE at 4 C. The conditions noted are these: protein: recombinant; tags: N-terminal 6His-GST (not cleaved); label: 5'-32P on one strand; blunt.
For series [5], the target named is T3, hUpZnK (upstream Sld2-like region + Zn knuckle) (human, UniProt O94761 335-427).
T3 sequence: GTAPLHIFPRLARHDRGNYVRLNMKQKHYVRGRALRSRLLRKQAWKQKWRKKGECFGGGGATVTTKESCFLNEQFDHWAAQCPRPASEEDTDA
The description is as above. The conditions noted are these: protein: recombinant; tags: N-terminal 6His-GST (not cleaved); label: 5'-32P on one strand; blunt.

The target of series [6] is T1, hZnK (RecQ4 Zn knuckle). Description: EMSA; 5 mM ZnCl2, 2 mM Mg2+; 20 mM Tris-HCl pH 7.5, 2 mM MgCl2, 50 mM NaCl, 5% glycerol, 1 mM DTT, 5 mM ZnCl2, 0.1 mg/ml BSA, 10 nM probe, 30 min room temperature; 6% native gel in TBE at 4 C. As to conditions: protein: recombinant, tags: N-terminal 6His-GST (not cleaved), label: 5'-32P on one strand, fork.
Series [7] concerns the target T3, hUpZnK (upstream Sld2-like region + Zn …). Described as above. As to conditions: protein: recombinant, tags: N-terminal 6His-GST (not cleaved), label: 5'-32P on one strand, fork.
Setting [8] is: 22 bp plus 15 nt unpaired U arms (3' arm of A3, 5' arm of A4).
[9] abbreviates: 22 bp plus 15 nt unpaired T arms (3' arm of A1, 5' arm of A2).

Regarding “GTAGTGCATGTACACCACACTCTTTTTTTTTTTTTTT / TTTTTTTTTTTTTTTGAGTGTGGTGTACATGCACTAC [forkDNA (A1+A2)]”, the Kd in series [1] was found to be 14 nM.
For ssDNA, the Kd stood at 500 nM in series [2], 25 nM in series [1] and 185 nM in series [3].
The matching figures for ssRNA: 220 nM, 7.3 nM and 11 nM.
Regarding “GUAGUGCAUGUACACCACACUCUUUUUUUUUUUUUUU / UUUUUUUUUUUUUUUGAGUGUGGUGUACAUGCACUAC [forkRNA (A3+A4)]”, the equilibrium dissociation constant (Kd) in series [1] amounted to 5.4 nM.

B1: 22 bp dsDNA (annealed region of fork) (dsDNA)
DNA 1: GTAGTGCATGTACACCACACTC
DNA 2: GAGTGTGGTGTACATGCACTAC
Take B1: the binding result in series [4] and in series [5] was “no binding” in each case.

B2: forkRNA (A3+A4) (dsRNA)
RNA 1: GUAGUGCAUGUACACCACACUCUUUUUUUUUUUUUUU
RNA 2: UUUUUUUUUUUUUUUGAGUGUGGUGUACAUGCACUAC
With B2, the Kd in series [6] (setting [8]) was roughly 130 nM; in series [7] (setting [8]), 13 ± 1.1 nM.

B3: forkDNA (A1+A2) (dsDNA)
DNA 1: GTAGTGCATGTACACCACACTCTTTTTTTTTTTTTTT
DNA 2: TTTTTTTTTTTTTTTGAGTGTGGTGTACATGCACTAC
Turning to B3, the figures for the Kd in series [6] (setting [9]) and in series [7] (setting [9]) were roughly 270 nM and 42 ± 2.8 nM, respectively.
